Here are results for 141 substances from the supplement of paper PMC12042874.

± gives the uncertainty stated by the source.

The nature of this data set: amyloid nucleation score (Sup35N fusion, yeast selection) (log enrichment); library NNK2; higher = more nucleation; inactive = no reads after selection. The gist of the method: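 Three technical output replicates were used for random libraries. Psi-negative yeast expressing peptides of 20 random codons fused to Sup35N were induced with 100 μM copper sulfate for 24 hours and grown 7 days at 30°C on medium lacking adenine and uracil, and input and output plasmid inserts were Illumina-sequenced, excluding sequences with under 100 input reads. The nucleation score is the DiMSum log enrichment of output over input reads, centred on the mode score of non-aggregating sequences.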
LLKLNGILVCLDRGVMPHDS gave an amyloid nucleation score of 2.57 ± 0.092.
LLLGINSCQEQPKGSFEERH registered an amyloid nucleation score of -0.91 ± 1.1.
Next, LLLIADYMSLVCCRAGVRDV: 0.215 ± 0.42; LLLITVVIRCRSWVWGWLIS: -0.358 ± 0.74.
Regarding LLLPSAGKGSL, the amyloid nucleation score stood at 0.219 ± 1.
The substance LLMMRGSRVSNS yielded an amyloid nucleation score of -0.763 ± 0.39.
The substance LLMSCPLSLCSEGVTSLVEG registered an amyloid nucleation score of 1.29 ± 0.3.
For the substance LLNDFRQLNTRYDSRWGQWQ, the amyloid nucleation score amounted to 3.08 ± 0.058.
Take LLNILISRAYLWSGFFERFL: the amyloid nucleation score result was “inactive”.
LLNRSRSL returned an amyloid nucleation score of -0.723 ± 0.45.
Next, LLPCLPLPFMSPITARATHI: 3.24 ± 0.058; LLPSGIIH: -0.815 ± 0.5; LLRDSVY: -0.817 ± 1.1.
LLRRNFNYVYIIYLILSSPV: the amyloid nucleation score result was “inactive”.
Next, LLRSLNLVG: 0.288 ± 0.65; LLRTHTSYRL: -0.836 ± 0.55; LLRVMLHISLVMC: -1.34 ± 0.53.
Next, LLSFLMRSRRFLSTVKY: -0.931 ± 0.78; LLVAALSHGPGISRSVNSHP: 5.91 ± 0.061.
On to LLWSTILMFWF, for which the amyloid nucleation score entry was “inactive”.
Next, LLYCCLRWMDSIQGLRPAFE: 1.1 ± 0.61; LMDRLFMKCDGLAG: 0.216 ± 0.53; LMKLNSTLSFDYFPLT: -0.166 ± 0.65.
Substance LMLNWCTLGLVHC registered an amyloid nucleation score of 0.004 ± 0.61.
LMMSVWF came in with an amyloid nucleation score of 5.48 ± 0.063.
Turning to LMRLDLGT, the amyloid nucleation score is -0.518 ± 0.32.
Take LMSGVLGRWLKKSSKFQESL: the amyloid nucleation score was -0.653 ± 1.1.
Regarding LMSYVSSRNVSLQFIFVLPL, the amyloid nucleation score amounted to 5.55 ± 0.069.
The result for LMTSPSFIYVWSYTGFRMFG reads 4.983 ± 0.042; that for LMYKNCCWFLA, 8.256 ± 0.062; that for LMYVCSLNNPLFMYANLL, 5.54 ± 0.084.
The substance LNAWQKEINDALSPLSYPDS had an amyloid nucleation score of 0.274 ± 1.1.
In the case of LNFKWANCVFVDSNCQQ, the amyloid nucleation score was found to be 3.13 ± 0.17.
For LNHCG, the amyloid nucleation score was determined as 0.738 ± 0.55.
Substance LNHIYYLAIQTTACILTMGE had an amyloid nucleation score of -1.07 ± 0.63.
LNKMECPCLFCVCVAFVIEW had an amyloid nucleation score of 5.38 ± 0.067.
Substance LNLGILAFSKVKIGVFQFYE registered an amyloid nucleation score of 6.834 ± 0.037.
With LNLSYIKAVTSRFAADYVL, the amyloid nucleation score amounted to 0.523 ± 0.18.
For LNNRISNVAAGSSLRIYLMD, the amyloid nucleation score turned out to be 2.79 ± 0.062.
Take LNNSIYHLGKY: the amyloid nucleation score entry is “inactive”.
LNRYYSLPRLSVPSSVRSCG gave an amyloid nucleation score of -1.18 ± 0.44.
Consider LNSGCAVVLCADSRHSNEPD, for which the amyloid nucleation score was -0.062 ± 0.65.
The result for LNSPLIPVRLMGVVRFQLLD reads -0.459 ± 0.39; that for LNSTGAQQFRTVEVYTSMQW, 2.81 ± 0.11; that for LNSYFTFVWTSVFGCVDPYE, 5.723 ± 0.035.
Next, LNTIFTKIIGFSA: -1.52 ± 0.49; LNVVARMFYLSLSSSGNWSG: -0.849 ± 0.64.
In the case of LNWTTGFSDSAPVICPDTMH, the amyloid nucleation score is -1.56 ± 1.1.
For the substance LNYDNFE, the amyloid nucleation score result is “inactive”.
LNYLCVHTLIACVSWVPVSA came in with an amyloid nucleation score of 2.36 ± 0.23.
The substance LNYRCAWWMLATMMLKRLSC came in with an amyloid nucleation score of 2.15 ± 0.31.
Regarding LPFFKIMVRSSYCCNYQG, the amyloid nucleation score is 2.29 ± 0.065.
LPGSYNYKGSHSQTNWFLDK displayed an amyloid nucleation score of -2.09 ± 1.
Next, LPHLCCIIY: 2.56 ± 0.066; LPIPIKETHLSCWAVDVGFD: -0.052 ± 0.2.
In the case of LPIRWVVVGEGSGVGRVWTW, the amyloid nucleation score was 0.227 ± 0.3.
LPLKNRVVDTCRKRFVGEVG displayed an amyloid nucleation score of -0.19 ± 1.
LPLYMTYACPVPTSIHRIIL had an amyloid nucleation score of -0.06 ± 0.28.
As for LPMLRHTYNCFSVACIGIFC, the amyloid nucleation score was -0.204 ± 0.3.
In turn, LPTFSPQ registered an amyloid nucleation score of 3.77 ± 0.13.
LPYYKHCNRLTNVTCLYKRR displayed an amyloid nucleation score of 3.34 ± 0.15.
Consider LQANWNDGPVGSSICAACSL, for which the amyloid nucleation score was -0.746 ± 0.76.
For the substance LQMSGTSR, the amyloid nucleation score amounted to 0.265 ± 1.1.
The result for LQNFRCTGCVLFCMHICPAM reads 4.84 ± 0.075; that for LQVAARHHL, “inactive”; that for LRESFKRWMLVVAATLYAFK, 0.376 ± 0.48.
LRFPRWSPADGDSILHTTSQ came in with an amyloid nucleation score of 0.673 ± 0.66.
The result for LRGHRPFLVY reads -0.02 ± 1.1; that for LRGRRRTVLPANGWCSLTAL, 0.453 ± 0.28; that for LRIRYFSFDIIVLEGYIRSA, -0.205 ± 0.29.
LRLFFNYWSNWGATEKNYIL: the amyloid nucleation score is -1.52 ± 1.1.
On to LRLLISV, for which the amyloid nucleation score was 0.306 ± 0.25.
The result for LRLWHDYSFFLNKVSQVHSY reads -1.12 ± 1.1; that for LRMSVVQLSVRESLLDNHDY, 1.78 ± 0.25; that for LRNMPRVQQVCPYFINVRGK, 2.25 ± 0.082.
The substance LRNRMAERDLYLYAICSAGL gave an amyloid nucleation score of 0.331 ± 0.55.
As to LRRASINCKMLGGDVGQVMW, the amyloid nucleation score was determined as 0.404 ± 0.66.
Next, LRRSTKSSCGVRCWVIEMGS: 0.138 ± 1.1; LRSEFRFIYLRLTWKVR: “inactive”; LRSLGAGAIYMPALQCRSRS: 0.255 ± 0.5.
LSACIALASGYVGISGW: the amyloid nucleation score result is “inactive”.
The substance LSAKSTCTAYNRAGSARTEY yielded an amyloid nucleation score of -0.072 ± 1.1.
As to LSALCES, the amyloid nucleation score was 0.98 ± 0.53.
LSALCGIGCDCLPTLTKLIV yielded an amyloid nucleation score of -0.089 ± 0.25.
In turn, LSCCSLIPTHPRPRDNVNEC yielded an amyloid nucleation score of 0.717 ± 0.23.
For LSCNMFDPVGQWCCGKKVGA, the amyloid nucleation score is 1.07 ± 0.42.
LSCWAYHVSWGWWHYIFAW: the amyloid nucleation score worked out at 1.11 ± 0.38.
Next, LSDIRWMSCGGVL: -0.602 ± 1.1; LSFFMPDT: -1.53 ± 0.36.
The result for LSFISRRDNDGYMICEYSLP reads 0.264 ± 0.65; that for LSGFKYWLRWL, “inactive”; that for LSGFV, -0.554 ± 0.64.
Next, LSGLRRPNRFLYT: -0.897 ± 0.43.
On to LSGRHY, for which the amyloid nucleation score turned out to be 0.33 ± 0.74.
Consider LSHKAEYLCVFSWACRIMGL, for which the amyloid nucleation score came out at 0.155 ± 0.42.
As to LSHPVIGGETKFPDDRNSQF, the amyloid nucleation score stood at 0.119 ± 0.19.
LSHRNPASRNYRPWQLNC showed an amyloid nucleation score of 0.245 ± 0.29.
LSLVNGLRDVFTSGWALRCW showed an amyloid nucleation score of 4.89 ± 0.05.
LSLYFFDL: the amyloid nucleation score is 1.06 ± 0.36.
As for LSMELNGYYILVCDLDFVTE, the amyloid nucleation score came to 1.5 ± 0.16.
LSMELNVYVERWWFSKLDRG had an amyloid nucleation score of -1.26 ± 0.49.
Take LSNLMRISMIFEYAAPLFRF: the amyloid nucleation score entry is “inactive”.
In turn, LSPRSGNRTP came in with an amyloid nucleation score of -0.436 ± 0.41.
Next, LSPVVRSMKDVLQCESVDDR: 0.191 ± 0.5; LSRFFFNRAPRKVTGLSVRY: 0.96 ± 0.21.
For the substance LSRSDAVRAFFRIMVLWKVV, the amyloid nucleation score is -0.32 ± 0.63.
For LSRVSE, the amyloid nucleation score was -0.405 ± 0.39.
For LSSKCYVA, the amyloid nucleation score is -0.874 ± 1.
Substance LSVLTNDSGLFKFGFIRCVW registered an amyloid nucleation score of -1.21 ± 0.75.
In the case of LSWAHVVICLIW, the amyloid nucleation score result was “inactive”.
Next, LSYLML: -1.03 ± 0.78.
Substance LSYNQD returned an amyloid nucleation score of -0.581 ± 0.64.
LSYNVLLGRIEIPWVSFSRM had an amyloid nucleation score of 3.94 ± 0.068.
Turning to LSYRVRCIRMNMLSSALGTM, the amyloid nucleation score result was “inactive”.
Substance LTDSKSALRLAMR returned an amyloid nucleation score of 4.48 ± 0.039.
With LTDVYMVI, the amyloid nucleation score was -0.395 ± 0.76.
LTGALREFPIYSGANDIWWR showed an amyloid nucleation score of -0.796 ± 0.44.
As for LTIDTTFVITSRYTCQLWQR, the amyloid nucleation score came out at 4.2 ± 0.056.
For LTILFH, the amyloid nucleation score was determined as 4.84 ± 0.078.
For LTLLFGRSVSEWVWNLMDRC, the amyloid nucleation score is -0.461 ± 0.29.
For the substance LTPYEYCVYDCFLSLESVLF, the amyloid nucleation score result is “inactive”.
For LTRPCITV, the amyloid nucleation score worked out at 0.193 ± 0.55.
The result for LTSMEARLQMKVRDGFQNGE reads 0.437 ± 0.49; that for LTTGKLYFSLEMYT, -0.653 ± 0.63; that for LTTMFFIMCHEFNLLAVFNY, 1.27 ± 0.26.
LTVRELLFTSRRHRARRHSC showed an amyloid nucleation score of 1.81 ± 0.32.
For the substance LTVVV, the amyloid nucleation score stood at 0.709 ± 0.66.
The result for LVAFLGQIEPSRTQRTLGSG reads 0.001 ± 0.39; that for LVDFNVLYNAGIIRLHTERY, 8.048 ± 0.07.
LVDNLR displayed an amyloid nucleation score of -0.441 ± 1.1.
The result for LVGDRNDVLPVFVRSRRRVP reads 0.53 ± 0.56; that for LVGRRWVFTDCKGFRASVNF, “inactive”.
Next, LVGWSLHSITFPEWRGHNPK: -0.991 ± 1.1; LVISLSISCAGKRVAQSHMG: -0.951 ± 0.76.
LVITTMDDLKCDRAVVGPMW had an amyloid nucleation score of -0.174 ± 0.76.
Take LVKTVDYAALPRICDVGRGQ: the amyloid nucleation score was 3.96 ± 0.075.
In turn, LVLFCAFRVTLGFSQTLNSM gave an amyloid nucleation score of -0.003 ± 0.8.
Consider LVLRQLVR, for which the amyloid nucleation score entry was “inactive”.
LVLWKLQVCSPLTVLRTPYR returned an amyloid nucleation score of 0.889 ± 0.28.
In the case of LVMFKVTF, the amyloid nucleation score is 6.432 ± 0.04.
The substance LVMTHAMFVSLWCGRTVFLL showed an amyloid nucleation score of 0.014 ± 0.49.
